In patent publication US20090138978A1 (GENERAL HOSPITAL, published 2009):
Each block holds one molecule with its values, some of them ahead of it.

Legend:
[1] = target: human PDX-1/IPF-1 mutant P63fsdelC, [35S]-radiolabeled in vitro translated (human) (UniProt P52945); test: GST pull-down with [35S]-labelled human PDX-1 proteins; reference is wild-type human PDX-1
[2] = target: Gal4-PDX-1 (Gal4 fusion protein of PDX-1) (UniProt P04386); test: cell-based or functional assay
[3] = target: p300 (full-length histone acetyltransferase and nuclear receptor coactivator) (UniProt Q09472); test: cell-based or functional assay
p300 (full-length histone acetyltransferase and nuclear receptor coactivator) (UniProt Q09472), sequence (Q09472 2-2414 limits assumed): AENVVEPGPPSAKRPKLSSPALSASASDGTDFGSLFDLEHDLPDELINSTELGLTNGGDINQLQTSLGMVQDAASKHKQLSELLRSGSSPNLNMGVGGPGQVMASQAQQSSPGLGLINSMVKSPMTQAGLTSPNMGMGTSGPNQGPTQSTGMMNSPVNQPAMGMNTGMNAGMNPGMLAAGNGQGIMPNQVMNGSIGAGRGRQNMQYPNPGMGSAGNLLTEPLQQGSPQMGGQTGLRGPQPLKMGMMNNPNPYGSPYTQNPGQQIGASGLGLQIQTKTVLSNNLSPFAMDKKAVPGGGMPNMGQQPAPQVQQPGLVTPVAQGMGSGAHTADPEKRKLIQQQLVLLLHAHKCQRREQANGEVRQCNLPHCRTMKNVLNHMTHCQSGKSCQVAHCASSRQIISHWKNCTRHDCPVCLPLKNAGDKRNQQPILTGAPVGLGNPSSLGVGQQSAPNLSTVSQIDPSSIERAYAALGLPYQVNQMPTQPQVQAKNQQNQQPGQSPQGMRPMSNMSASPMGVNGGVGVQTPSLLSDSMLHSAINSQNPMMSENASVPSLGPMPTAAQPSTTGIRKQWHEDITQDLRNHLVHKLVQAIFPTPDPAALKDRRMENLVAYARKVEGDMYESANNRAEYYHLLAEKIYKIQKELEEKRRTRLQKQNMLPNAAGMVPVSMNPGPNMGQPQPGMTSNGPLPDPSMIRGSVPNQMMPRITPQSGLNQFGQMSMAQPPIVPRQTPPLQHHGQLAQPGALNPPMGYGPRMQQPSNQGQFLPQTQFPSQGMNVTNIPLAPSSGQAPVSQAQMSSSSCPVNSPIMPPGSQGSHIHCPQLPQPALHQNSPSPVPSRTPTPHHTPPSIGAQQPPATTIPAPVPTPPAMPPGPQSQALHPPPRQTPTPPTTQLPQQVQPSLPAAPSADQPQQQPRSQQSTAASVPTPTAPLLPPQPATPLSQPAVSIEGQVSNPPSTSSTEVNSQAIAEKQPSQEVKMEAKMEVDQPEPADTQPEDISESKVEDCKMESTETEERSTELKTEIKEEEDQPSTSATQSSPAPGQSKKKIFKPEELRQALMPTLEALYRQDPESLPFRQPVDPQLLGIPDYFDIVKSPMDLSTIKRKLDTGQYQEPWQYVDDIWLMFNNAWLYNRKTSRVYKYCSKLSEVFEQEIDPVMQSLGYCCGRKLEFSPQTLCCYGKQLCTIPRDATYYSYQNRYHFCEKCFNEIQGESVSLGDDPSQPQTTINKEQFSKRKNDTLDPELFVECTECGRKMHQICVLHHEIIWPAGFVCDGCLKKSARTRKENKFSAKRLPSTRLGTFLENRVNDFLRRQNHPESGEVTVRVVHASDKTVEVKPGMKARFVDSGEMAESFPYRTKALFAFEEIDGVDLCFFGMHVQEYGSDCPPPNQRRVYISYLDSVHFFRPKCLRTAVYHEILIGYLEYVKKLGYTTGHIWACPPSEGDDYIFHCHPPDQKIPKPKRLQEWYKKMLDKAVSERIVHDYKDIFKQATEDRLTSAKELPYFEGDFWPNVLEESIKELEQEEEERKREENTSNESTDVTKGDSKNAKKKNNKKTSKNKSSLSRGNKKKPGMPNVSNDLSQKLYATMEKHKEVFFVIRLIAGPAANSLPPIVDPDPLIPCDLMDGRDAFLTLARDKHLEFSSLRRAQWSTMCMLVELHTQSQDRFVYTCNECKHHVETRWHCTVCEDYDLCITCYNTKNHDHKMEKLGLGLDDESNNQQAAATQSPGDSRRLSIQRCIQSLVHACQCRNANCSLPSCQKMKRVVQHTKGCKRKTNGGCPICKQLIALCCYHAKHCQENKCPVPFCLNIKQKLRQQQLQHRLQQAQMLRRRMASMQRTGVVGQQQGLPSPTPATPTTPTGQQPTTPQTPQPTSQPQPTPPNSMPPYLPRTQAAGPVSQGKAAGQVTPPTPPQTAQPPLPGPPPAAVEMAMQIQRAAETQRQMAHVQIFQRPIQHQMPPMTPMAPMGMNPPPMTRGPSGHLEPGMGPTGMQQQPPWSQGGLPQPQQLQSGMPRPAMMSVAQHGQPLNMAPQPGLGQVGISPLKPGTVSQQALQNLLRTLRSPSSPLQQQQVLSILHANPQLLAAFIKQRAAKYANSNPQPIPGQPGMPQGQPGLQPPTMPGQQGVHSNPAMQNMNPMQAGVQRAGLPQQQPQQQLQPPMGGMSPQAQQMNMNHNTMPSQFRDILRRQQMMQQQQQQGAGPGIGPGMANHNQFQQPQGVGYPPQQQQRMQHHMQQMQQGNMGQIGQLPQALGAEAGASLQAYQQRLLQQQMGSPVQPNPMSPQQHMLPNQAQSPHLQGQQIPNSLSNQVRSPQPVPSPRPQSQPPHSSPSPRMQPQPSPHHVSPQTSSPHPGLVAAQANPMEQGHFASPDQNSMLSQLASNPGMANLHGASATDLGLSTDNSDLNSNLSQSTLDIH

[4] = target: T1, LexA-rat PDX-1 bait fusion protein (PDX-1 amino acids 160-283) (rat, UniProt P52947 160-283); test: yeast two-hybrid interaction trap; - means no growth on leucine dropout plates and white colonies on X-gal plates
T1 construct: range 160-283; also called carboxy-terminal PDX-1 protein fragment; not shown: LexA moiety encoded by the yeast bait vector pEG202
T1 sequence (P52947 160-283 limits assumed): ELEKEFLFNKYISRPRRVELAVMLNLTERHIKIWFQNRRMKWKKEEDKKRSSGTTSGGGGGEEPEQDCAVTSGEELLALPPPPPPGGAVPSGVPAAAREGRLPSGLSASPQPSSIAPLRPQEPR

GST-p300 (1572-2370) = target: T2, GST-p300 (1572-2370) (UniProt Q09472 1572-2370); test: GST pull-down with [35S]-labelled in vitro translated Bridge-1
T2 construct: also called carboxy-terminal segment of p300; not shown: glutathione S-transferase
T2 sequence (looked up): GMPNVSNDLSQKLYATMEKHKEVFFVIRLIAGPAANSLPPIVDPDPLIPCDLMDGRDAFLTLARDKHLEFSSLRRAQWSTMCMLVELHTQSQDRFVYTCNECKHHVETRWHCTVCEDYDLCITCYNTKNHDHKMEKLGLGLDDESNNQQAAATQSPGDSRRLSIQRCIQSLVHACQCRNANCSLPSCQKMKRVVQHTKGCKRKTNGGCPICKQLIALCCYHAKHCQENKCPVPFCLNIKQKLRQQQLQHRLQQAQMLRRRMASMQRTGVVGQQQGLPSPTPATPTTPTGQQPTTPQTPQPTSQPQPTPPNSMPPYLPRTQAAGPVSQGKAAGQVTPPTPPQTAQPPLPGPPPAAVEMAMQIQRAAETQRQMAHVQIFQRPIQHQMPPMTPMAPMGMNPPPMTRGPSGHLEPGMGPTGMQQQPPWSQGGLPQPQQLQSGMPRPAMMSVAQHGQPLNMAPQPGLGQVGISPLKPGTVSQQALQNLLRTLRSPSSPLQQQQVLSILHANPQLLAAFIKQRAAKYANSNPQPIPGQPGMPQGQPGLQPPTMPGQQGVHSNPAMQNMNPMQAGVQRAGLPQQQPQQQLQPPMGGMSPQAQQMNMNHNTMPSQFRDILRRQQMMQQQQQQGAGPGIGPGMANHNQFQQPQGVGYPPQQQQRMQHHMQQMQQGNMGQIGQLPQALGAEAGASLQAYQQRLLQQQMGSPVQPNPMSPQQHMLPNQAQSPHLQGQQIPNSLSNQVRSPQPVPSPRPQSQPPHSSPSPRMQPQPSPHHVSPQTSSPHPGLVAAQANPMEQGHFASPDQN

[5] = target: T3, p300 (full-length histone acetyltransferase and nuclear receptor coactivator) (UniProt Q09472 2-2414, limits assumed, [35S]-methionine labelled in the pull-down assays); test: GST pull-down with [35S]-labelled in vitro translated p300
T3 construct: mature; In vitro translated in rabbit reticulocyte lysate for the pull-downs; Expressed from pCMV-p300 in BHK cells for the reporter assay; also called [35S]-p300; radiolabeled in vitro translated full-length p300
T3 sequence (Q09472 2-2414 limits assumed): as the sequence (Q09472 2-2414 limits assumed) above

human PDX-1/IPF-1 mutant P63fsdelC, [35S]-radiolabeled in vitro translated (human), sequence (P52945 1-62, stated change not applied): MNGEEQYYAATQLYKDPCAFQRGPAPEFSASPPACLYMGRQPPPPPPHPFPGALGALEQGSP

- fold stronger interaction as compared to the wild-type PDX-1 protein [1]: > 2 fold
Molecule: GST-Bridge-1 (glutathione-S-transferase fused to full-length rat Bridge-1) (from UniProt P08515 1-218)

- activation of a Gal4-CAT reporter in transfected BHK cells [2]: 76 fold
- activation of a Gal4-CAT reporter in transfected BHK cells [3]: > 70 fold
Molecule: Gal4-Bridge-1 (Gal4 DNA-binding domain fused to full-length rat Bridge-1) (from UniProt P04386 1-147)

- binding result [4]: no binding
B1: rat inhibitor of differentiation-3 (Id3) (yeast interaction trap control protein) (other, UniProt P41138 1-119, looked up)
chain: MKALSPVRGCYEAVCCLSERSLAIARGRGKSPSAEEPLSLLDDMNHCYSRLRELVPGVPRGTQLSQVEILQRVIDYILDLQVVLAEPAPGPPDGPHLPIQTAELTPELVISKDKRSFCH
notes: Control protein tested against the PDX-1 bait

- binding result (GST-p300 (1572-2370)): no binding
B2: rat Bridge-1 (full-length, 1-222) (other)
chain: MSSEEVRHRAESSEARAAAVSDIQELMRRKEEIEAQIKANYDVLESQKGIGMNEPLVDCEGYPRADVDLYQVRTARHNIICLQNDHKALMKQVEEALHQLHARDKEKQARDMAEAREEAMNRRLASDSPALPKAFARVNSISPGSPASIAGLQVDDEIVEFGSVNTQNFQSLQNVGTVVQHSEGKPLNVMVIRRGEKHQLRLTPTRWAGKGLLGCNITPLQR
modifications: [35S]-methionine labelled in the pull-down assays
notes: In vitro translated from pcDNA3-Bridge-1 in rabbit reticulocyte lysate for the pull-downs; Expressed from the same vector in BHK and HeLa cells for the reporter assays; also called [35S]-Bridge-1; radiolabeled in vitro translated Bridge-1

- binding result [5]: no binding
B3: GST-Bridge-1 (D156P) (other)
chain: MSSEEVRHRAESSEARAAAVSDIQELMRRKEEIEAQIKANYDVLESQKGIGMNEPLVDCEGYPRADVDLYQVRTARHNIICLQNDHKALMKQVEEALHQLHARDKEKQARDMAEAREEAMNRRLASDSPALPKAFARVNSISPGSPASIAGLQVDPEIVEFGSVNTQNFQSLQNVGTVVQHSEGKPLNVMVIRRGEKHQLRLTPTRWAGKGLLGCNITPLQR
notes: also called mutant GST-Bridge-1 fusion protein D156P; not shown: N-terminal glutathione-S-transferase carrier encoded by pGEX-5X-1, plus the short vector-derived linker
